From article PMC2756588

T1: Abp1, P15891
T1 sequence (P15891 535-592, looked up): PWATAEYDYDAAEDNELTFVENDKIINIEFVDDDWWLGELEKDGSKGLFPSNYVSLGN

T2: Bbc1, P47068
T2 sequence (P47068 1-78, looked up): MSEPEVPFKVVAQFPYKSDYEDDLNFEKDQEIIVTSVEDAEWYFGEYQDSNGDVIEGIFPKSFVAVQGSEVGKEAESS

T3: Boi1, P38041
T3 sequence (P38041 1-86, looked up): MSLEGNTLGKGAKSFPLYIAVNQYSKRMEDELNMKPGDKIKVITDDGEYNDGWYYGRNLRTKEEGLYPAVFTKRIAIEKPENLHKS

T4: Boi2, P39969
T4 sequence (P39969 32-116, looked up): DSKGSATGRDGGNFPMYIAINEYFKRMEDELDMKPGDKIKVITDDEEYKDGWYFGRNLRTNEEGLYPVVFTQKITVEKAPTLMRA

T5: Bud14, P27637
T5 sequence (P27637 247-328, looked up): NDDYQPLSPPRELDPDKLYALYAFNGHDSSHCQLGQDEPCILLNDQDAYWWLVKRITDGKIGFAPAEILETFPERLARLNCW

T6: Bzz1-1, P38822
T6 sequence (P38822 478-572, looked up): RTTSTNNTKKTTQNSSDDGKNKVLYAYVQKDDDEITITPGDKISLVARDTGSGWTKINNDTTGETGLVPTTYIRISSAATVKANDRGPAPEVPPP

T7: Bzz1-2, P38822
T7 sequence (P38822 568-633, looked up): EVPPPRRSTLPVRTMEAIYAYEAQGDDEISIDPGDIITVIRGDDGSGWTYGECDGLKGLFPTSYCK

T8: Cdc25, P04821
T8 sequence (P04821 50-136, looked up): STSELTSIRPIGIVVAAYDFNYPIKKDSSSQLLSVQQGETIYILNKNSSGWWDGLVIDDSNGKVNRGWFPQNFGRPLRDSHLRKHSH

T9: Cyk3, Q07533
T9 sequence (Q07533 1-83, looked up): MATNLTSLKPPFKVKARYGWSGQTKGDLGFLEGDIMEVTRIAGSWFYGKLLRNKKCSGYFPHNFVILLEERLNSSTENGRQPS

T10: Fus1, P11710
T10 sequence (P11710 432-512, looked up): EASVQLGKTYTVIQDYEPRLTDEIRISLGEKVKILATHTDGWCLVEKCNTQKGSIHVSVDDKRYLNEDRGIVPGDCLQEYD

T11: Hof1, Q05080
T11 sequence (Q05080 590-669, looked up): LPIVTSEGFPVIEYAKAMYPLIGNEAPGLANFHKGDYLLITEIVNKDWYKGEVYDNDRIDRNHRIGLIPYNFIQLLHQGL

T12: Hse1, P38753
T12 sequence (P38753 208-285, looked up): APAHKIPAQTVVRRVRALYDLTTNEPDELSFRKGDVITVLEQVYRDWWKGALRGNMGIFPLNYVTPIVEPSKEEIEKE

T13: Lsb1, P53281
T13 sequence (P53281 45-122, looked up): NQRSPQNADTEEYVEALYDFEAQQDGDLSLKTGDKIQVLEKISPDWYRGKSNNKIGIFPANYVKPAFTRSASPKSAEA

T14: Lsb3, P43603
T14 sequence (P43603 385-451, looked up): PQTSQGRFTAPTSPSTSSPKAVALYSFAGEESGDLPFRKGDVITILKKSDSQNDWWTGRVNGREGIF

T15: Lsb4, P32793
T15 sequence (P32793 402-468, looked up): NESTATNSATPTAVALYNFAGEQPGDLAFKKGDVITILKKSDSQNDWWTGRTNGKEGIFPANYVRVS

T16: Myo5, Q04439
T16 sequence (Q04439 1072-1160, looked up): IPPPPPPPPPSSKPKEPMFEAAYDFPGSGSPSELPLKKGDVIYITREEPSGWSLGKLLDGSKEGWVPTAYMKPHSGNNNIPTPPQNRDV

T17: Nbp2, Q12163
T17 sequence (Q12163 103-180, looked up): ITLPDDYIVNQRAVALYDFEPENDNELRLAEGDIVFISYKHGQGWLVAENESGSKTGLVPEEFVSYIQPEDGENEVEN

T18: Pex13, P80667
T18 sequence (P80667 295-386, looked up): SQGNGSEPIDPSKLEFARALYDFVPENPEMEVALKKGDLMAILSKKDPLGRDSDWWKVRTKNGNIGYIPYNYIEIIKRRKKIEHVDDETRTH

T19: Pin3, Q06449
T19 sequence (Q06449 53-122, looked up): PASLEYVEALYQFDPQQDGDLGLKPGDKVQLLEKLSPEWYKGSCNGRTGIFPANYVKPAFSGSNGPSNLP

T20: Sla1-2, P32790
T20 sequence (P32790 60-140, looked up): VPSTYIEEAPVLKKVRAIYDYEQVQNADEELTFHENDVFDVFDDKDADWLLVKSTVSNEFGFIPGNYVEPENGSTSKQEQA

T21: Sla1-3, P32790
T21 sequence (P32790 344-424, looked up): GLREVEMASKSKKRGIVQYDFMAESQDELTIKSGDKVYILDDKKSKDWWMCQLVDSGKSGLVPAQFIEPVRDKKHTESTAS


Molecular target: T1, Abp1, P15891
Test: SPOT array
Settings: median of control spots 935

SPOT intensity	Binder
0	GDHPKGPPPPPPPPD
0	SPLGAPPPPPHKDHL
212	IFLRISINFPLNYPN

Molecular target: T2, Bbc1, P47068
Test: SPOT array
Settings: median of control spots 796

SPOT intensity	Binder
0	GDHPKGPPPPPPPPD
0	SPLGAPPPPPHKDHL
192	IFLRISINFPLNYPN

Molecular target: Bem1-1, P29366
Test: SPOT array
Settings: median of control spots 4282

Sequence of Bem1-1, P29366 (P29366 55-141): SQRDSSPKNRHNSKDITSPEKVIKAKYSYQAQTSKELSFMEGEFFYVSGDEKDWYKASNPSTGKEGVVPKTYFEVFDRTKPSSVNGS

SPOT intensity	Binder
0	GDHPKGPPPPPPPPD
0	SPLGAPPPPPHKDHL
8	IFLRISINFPLNYPN

Molecular target: Bem1-2, P29366
Test: SPOT array
Settings: median of control spots 4347

Sequence of Bem1-2, P29366 (P29366 139-227): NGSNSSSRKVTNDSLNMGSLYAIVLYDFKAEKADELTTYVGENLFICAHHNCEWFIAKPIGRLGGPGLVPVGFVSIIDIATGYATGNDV

SPOT intensity	Binder
0	GDHPKGPPPPPPPPD
0	SPLGAPPPPPHKDHL
3	IFLRISINFPLNYPN

Molecular target: T3, Boi1, P38041
Test: SPOT array
Settings: median of control spots 1162

SPOT intensity	Binder
0	GDHPKGPPPPPPPPD
1	SPLGAPPPPPHKDHL
24	IFLRISINFPLNYPN

Molecular target: T4, Boi2, P39969
Test: SPOT array
Settings: median of control spots 1161

SPOT intensity	Binder
0	GDHPKGPPPPPPPPD
0	SPLGAPPPPPHKDHL
3	IFLRISINFPLNYPN

Molecular target: T5, Bud14, P27637
Test: SPOT array
Settings: median of control spots 956

SPOT intensity	Binder
1	GDHPKGPPPPPPPPD
0	SPLGAPPPPPHKDHL
18	IFLRISINFPLNYPN

Molecular target: T6, Bzz1-1, P38822
Test: SPOT array
Settings: median of control spots 4446

SPOT intensity	Binder
331	GDHPKGPPPPPPPPD
0	SPLGAPPPPPHKDHL
6	IFLRISINFPLNYPN

Molecular target: T7, Bzz1-2, P38822
Test: SPOT array
Settings: median of control spots 4538

SPOT intensity	Binder
0	GDHPKGPPPPPPPPD
0	SPLGAPPPPPHKDHL
70	IFLRISINFPLNYPN

Molecular target: T8, Cdc25, P04821
Test: SPOT array
Settings: median of control spots 969

SPOT intensity	Binder
0	GDHPKGPPPPPPPPD
0	SPLGAPPPPPHKDHL
91	IFLRISINFPLNYPN

Molecular target: T9, Cyk3, Q07533
Test: SPOT array
Settings: median of control spots 1451

SPOT intensity	Binder
0	GDHPKGPPPPPPPPD
0	SPLGAPPPPPHKDHL
5	IFLRISINFPLNYPN

Molecular target: T10, Fus1, P11710
Test: SPOT array
Settings: median of control spots 1200

SPOT intensity	Binder
0	GDHPKGPPPPPPPPD
0	SPLGAPPPPPHKDHL
655	IFLRISINFPLNYPN

Molecular target: GST
Test: SPOT array
Settings: median of control spots 978

SPOT intensity	Binder
0	GDHPKGPPPPPPPPD
1	SPLGAPPPPPHKDHL
0	IFLRISINFPLNYPN

Molecular target: T11, Hof1, Q05080
Test: SPOT array
Settings: median of control spots 4086

SPOT intensity	Binder
0	GDHPKGPPPPPPPPD
0	SPLGAPPPPPHKDHL
15	IFLRISINFPLNYPN

Molecular target: T12, Hse1, P38753
Test: SPOT array
Settings: median of control spots 1727

SPOT intensity	Binder
0	GDHPKGPPPPPPPPD
0	SPLGAPPPPPHKDHL
143	IFLRISINFPLNYPN

Molecular target: T13, Lsb1, P53281
Test: SPOT array
Settings: median of control spots 388

SPOT intensity	Binder
0	GDHPKGPPPPPPPPD
0	SPLGAPPPPPHKDHL
71	IFLRISINFPLNYPN

Molecular target: T14, Lsb3, P43603
Test: SPOT array
Settings: median of control spots 406

SPOT intensity	Binder
0	GDHPKGPPPPPPPPD
0	SPLGAPPPPPHKDHL
10	IFLRISINFPLNYPN

Molecular target: T15, Lsb4, P32793
Test: SPOT array
Settings: median of control spots 397

SPOT intensity	Binder
0	GDHPKGPPPPPPPPD
0	SPLGAPPPPPHKDHL
14	IFLRISINFPLNYPN

Molecular target: Myo3, P36006
Test: SPOT array
Settings: median of control spots 468

SPOT intensity	Binder
456	GDHPKGPPPPPPPPD
327	SPLGAPPPPPHKDHL
71	IFLRISINFPLNYPN

Molecular target: T16, Myo5, Q04439
Test: SPOT array
Settings: median of control spots 471

SPOT intensity	Binder
262	GDHPKGPPPPPPPPD
81	SPLGAPPPPPHKDHL
15	IFLRISINFPLNYPN

Molecular target: T17, Nbp2, Q12163
Test: SPOT array
Settings: median of control spots 357

SPOT intensity	Binder
1	GDHPKGPPPPPPPPD
0	SPLGAPPPPPHKDHL
74	IFLRISINFPLNYPN

Molecular target: T18, Pex13, P80667
Test: SPOT array
Settings: median of control spots 1341

SPOT intensity	Binder
0	GDHPKGPPPPPPPPD
0	SPLGAPPPPPHKDHL
76	IFLRISINFPLNYPN

Molecular target: T19, Pin3, Q06449
Test: SPOT array
Settings: median of control spots 2171

SPOT intensity	Binder
0	GDHPKGPPPPPPPPD
0	SPLGAPPPPPHKDHL
101	IFLRISINFPLNYPN

Molecular target: Rvs167, P39743
Test: SPOT array
Settings: median of control spots 2707

Sequence of Rvs167, P39743 (P39743 419-482): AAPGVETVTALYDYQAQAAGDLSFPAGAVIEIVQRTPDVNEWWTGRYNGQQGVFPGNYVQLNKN

SPOT intensity	Binder
0	GDHPKGPPPPPPPPD
2	SPLGAPPPPPHKDHL
1	IFLRISINFPLNYPN

Molecular target: Sho1, P40073
Test: SPOT array
Settings: median of control spots 1148

Sequence of Sho1, P40073 (P40073 287-367): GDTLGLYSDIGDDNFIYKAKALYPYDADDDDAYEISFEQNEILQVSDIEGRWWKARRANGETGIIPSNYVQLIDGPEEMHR

SPOT intensity	Binder
0	GDHPKGPPPPPPPPD
1	SPLGAPPPPPHKDHL
134	IFLRISINFPLNYPN

Molecular target: T20, Sla1-2, P32790
Test: SPOT array
Settings: median of control spots 712

SPOT intensity	Binder
0	GDHPKGPPPPPPPPD
0	SPLGAPPPPPHKDHL
12	IFLRISINFPLNYPN

Molecular target: T21, Sla1-3, P32790
Test: SPOT array
Settings: median of control spots 5475

SPOT intensity	Binder
0	GDHPKGPPPPPPPPD
0	SPLGAPPPPPHKDHL
199	IFLRISINFPLNYPN
